The test deals with HKU5-20s trimeric ectodomain with 2P stabilizing mutations (merbecovirus HKU5-20s (host Pipistrellus abramus)). The test is described as follows: cryo-EM structure.

The term stoichiometry N denotes a count of units in the complex or per binding partner. Substance “HKU5-20s trimeric ectodomain with 2P stabilizing mutations (domain or fragment)” came in with a stoichiometry N of 3.

(Values after PMC10980018.)
